Ends that are not written are not given here.
What was measured:
A1PI [1] = target: T1, A1PI (Homo sapiens, UniProt P01009); experiment: Capture and elution of active A1PI with 2M urea buffer (elastase inhibition activity assay and immunonephelometry); type: binding; details: 4° C.
T1 construct: Human plasma is currently the only approved source of therapeutic AlPI

Immunoglobulin A (IgA) = experiment: Purification from Effluent II+III, IgA mass balance; type: binding, human; details: 1 ml Eff. II+III, 4° C.
Outline: (§1)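 Run at 4° C: Effluent II+III (1 ml, 20% ethanol) loaded with a 10 min residence. Elution at 865 μl/min, in sequence 1M NaCl, 3M NaCl, 2% acetic acid; A1PI, IgA, IgG and haptoglobin accounted for in each fraction.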

A1PI [2] = target: T1, A1PI; experiment: A1PI purification from 5 mg hSA + 1 mg A1PI on peptide column, A1PI mass balance; type: binding; details: for Mass AlPI Eluted in Acid Eluate: nephelometry; for Mass Protein per Eluate Fraction, 1M NaCl / Mass Protein per Eluate Fraction, 2% Ac. Acid / Mass Protein per Eluate Fraction, 3M NaCl / Mass Protein per Eluate Fraction, Flow / Percent Eluted by Fraction, 1M NaCl / Percent Eluted by Fraction, 2% Ac. Acid / Percent Eluted by Fraction, 3M NaCl / Percent Eluted by Fraction, Flow: A1PI, 5 mg hSA + 1 mg A1PI; for Mass Protein per Eluate Fraction, 1M NaCl / Mass Protein per Eluate Fraction, 2% Ac. Acid / Mass Protein per Eluate Fraction, 3M NaCl / Mass Protein per Eluate Fraction, Flow: * Below detection limit; for Percent Eluted by Fraction, 1M NaCl / Percent Eluted by Fraction, 2% Ac. Acid / Percent Eluted by Fraction, 3M NaCl / Percent Eluted by Fraction, Flow: relative to total eluted
Outline: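 Peptides on A-Totda-Toyopearl resin (0.1 mmole/g) in 0.4×5 cm columns; 5 mg hSA + 1 mg A1PI loaded at 4 °C or 20 °C with 10 min residence (17 μl/min). Steps of 1M and 3M NaCl, then 2% acetic acid; fractions quantified by immunonephelometry for mass balance.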

A1PI [3] = target: T1, A1PI; experiment: Purification of A1PI from Effluent II+III on peptide column, A1PI mass balance; type: binding; details: A1PI, 1 ml Eff. II+III, 4° C.
Outline: as §1

Immunoglobulin G (IgG) = experiment: Purification from Effluent II+III, IgG mass balance; type: binding, human; details: 1 ml Eff. II+III, 4° C.
Outline: as §1

A1PI [4] = target: T1, A1PI; experiment: A1PI binding on peptide-resin column, injection of 1 mg A1PI in equilibration buffer; details: 1 mg A1PI in equilibration buffer
Outline: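 Peptides synthesized on A-Totda-Toyopearl chelate resin (0.1 mmole/g) packed in 0.4×5 cm columns; 1 mg A1PI injected in equilibration buffer at 4 °C or 20 °C, 865 or 523 μl/min. Flowthrough, 1M/3M NaCl washes and 2% acetic acid eluate quantified by A280 or immunonephelometry as percent of total eluted.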

[5] = target: T2, apolipoprotein alpha-1 (Apo A-1) (Homo sapiens, UniProt P02647); experiment: Purification from Effluent II+III, Apo A-1 mass balance; type: binding; details: 1 ml Eff. II+III, 4° C.
T2 construct: Eff; II+III is a process intermediate in the Cohn plasma fractionation process; tissue Bayer Corporation (Clayton, N.C.); host or cells: plasma fraction: Cohn Effluent II+III
T2 sequence (P02647 19-267): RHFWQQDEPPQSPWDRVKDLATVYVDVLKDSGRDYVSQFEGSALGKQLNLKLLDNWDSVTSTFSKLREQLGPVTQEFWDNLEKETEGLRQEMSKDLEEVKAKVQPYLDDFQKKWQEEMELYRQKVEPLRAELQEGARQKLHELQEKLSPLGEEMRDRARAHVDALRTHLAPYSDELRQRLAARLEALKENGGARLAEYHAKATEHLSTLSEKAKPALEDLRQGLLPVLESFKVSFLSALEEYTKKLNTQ
Outline: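 Mass balance per protein was determined over the load and each step eluate (1M NaCl, 3M NaCl, 2% acetic acid) of peptide columns challenged with 1 ml Effluent II+III. The feed contained 20% ethanol and 20-25 mg/ml hSA, the flow was 865 μl/min after a 10 min residence, and the temperature was 4° C.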

[6] = * as in Tables 4, 5 (below detection limit)

T1 sequence (P01009 25-418): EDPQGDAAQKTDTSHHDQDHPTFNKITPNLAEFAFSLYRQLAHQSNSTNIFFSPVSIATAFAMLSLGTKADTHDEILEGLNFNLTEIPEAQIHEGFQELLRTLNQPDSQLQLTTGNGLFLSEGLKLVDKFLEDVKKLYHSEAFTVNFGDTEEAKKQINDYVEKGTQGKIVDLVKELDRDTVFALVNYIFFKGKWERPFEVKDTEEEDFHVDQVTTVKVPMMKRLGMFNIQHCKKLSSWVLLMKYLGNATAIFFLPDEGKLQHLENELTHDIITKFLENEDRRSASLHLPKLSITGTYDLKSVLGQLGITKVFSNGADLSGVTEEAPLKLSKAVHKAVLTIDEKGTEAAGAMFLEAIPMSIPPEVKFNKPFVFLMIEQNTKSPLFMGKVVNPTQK

## PYWIVR
A1PI [1]; 1 mg A1PI, eluted with 2M urea, pH 6, elastase inhibition activity assay
  Mass A1PI in Urea Eluate (mg), Activity: 0.37 mg
A1PI [1]; 1 mg A1PI, eluted with 2M urea, pH 6, immunonephelometry
  Mass A1PI in Urea Eluate (mg), Nephelometry: 0.49 mg
A1PI [1]; mass of A1PI by activity assay relative to immunonephelometry, urea eluate
  Specific Activity: 0.75 mg/mg
Immunoglobulin A (IgA)
  Percent Eluted by Fraction, 1M NaCl: 57%
  Percent Eluted by Fraction, 2% Acetic Acid: 22%
  Percent Eluted by Fraction, 3M NaCl: 0%
  Percent Eluted by Fraction, Flow: 21%
Immunoglobulin A (IgA); [6]
  Mass Protein per Eluate Fraction, 1M NaCl: 0.22 mg
  Mass Protein per Eluate Fraction, 2% Acetic Acid: 0.08 mg
  Mass Protein per Eluate Fraction, Flow: 0.08 mg
A1PI [2]; 250 μg AlPI injected with 5 mg hSA, 20° C.
  Mass AlPI Eluted in Acid Eluate: 0.09 mg
A1PI [2]; 500 μg AlPI injected with 5 mg hSA, 20° C.
  Mass AlPI Eluted in Acid Eluate: 0.21 mg
A1PI [2]; 1000 μg AlPI injected with 5 mg hSA, 20° C.
  Mass AlPI Eluted in Acid Eluate: 0.30 mg
A1PI [2]; 4° C.
  Mass Protein per Eluate Fraction, 1M NaCl: 0.31 mg
  Mass Protein per Eluate Fraction, 2% Ac. Acid: 0.19 mg
  Mass Protein per Eluate Fraction, 3M NaCl: 0.02 mg
  Mass Protein per Eluate Fraction, Flow: 0.19 mg
  Percent Eluted by Fraction, 1M NaCl: 44%
  Percent Eluted by Fraction, 2% Ac. Acid: 27%
  Percent Eluted by Fraction, 3M NaCl: 3%
  Percent Eluted by Fraction, Flow: 27%
A1PI [2]; 20° C.
  Mass Protein per Eluate Fraction, 1M NaCl: 0.32 mg
  Mass Protein per Eluate Fraction, 2% Ac. Acid: 0.38 mg
  Mass Protein per Eluate Fraction, 3M NaCl: 0.02 mg
  Mass Protein per Eluate Fraction, Flow: 0.07 mg
  Percent Eluted by Fraction, 1M NaCl: 41%
  Percent Eluted by Fraction, 2% Ac. Acid: 48%
  Percent Eluted by Fraction, 3M NaCl: 2%
  Percent Eluted by Fraction, Flow: 9%
A1PI [3]
  Percent Eluted by Fraction, 1M NaCl: 16%
  Percent Eluted by Fraction, 2% Acetic Acid: 29%
  Percent Eluted by Fraction, 3M NaCl: 0%
  Percent Eluted by Fraction, Flow: 56%
A1PI [3]; [6]
  Mass Protein per Eluate Fraction, 1M NaCl: 0.15 mg
  Mass Protein per Eluate Fraction, 2% Acetic Acid: 0.28 mg
  Mass Protein per Eluate Fraction, Flow: 0.55 mg
Immunoglobulin G (IgG)
  Percent Eluted by Fraction, 1M NaCl: 10%
  Percent Eluted by Fraction, 2% Acetic Acid: 0%
  Percent Eluted by Fraction, 3M NaCl: 0%
  Percent Eluted by Fraction, Flow: 90%
Immunoglobulin G (IgG); [6]
  Mass Protein per Eluate Fraction, 1M NaCl: 0.03 mg
  Mass Protein per Eluate Fraction, Flow: 0.30 mg
A1PI [4]; 4° C.
  Percent A1PI Eluted by Fraction Based on Absorbance at 280 nm, 1M NaCl: 74%
  Percent A1PI Eluted by Fraction Based on Absorbance at 280 nm, 2% Acetic Acid: 26%
  Percent A1PI Eluted by Fraction Based on Absorbance at 280 nm, Flowthrough: 0%
A1PI [4]; 20° C.
  Percent A1PI Eluted by Fraction, 1M NaCl: 55%
  Percent A1PI Eluted by Fraction, 2% Acetic Acid: 45%
  Percent A1PI Eluted by Fraction, Flowthrough: 0%
[5]
  Percent Eluted by Fraction, 1M NaCl: 60%
  Percent Eluted by Fraction, 2% Acetic Acid: 0%
  Percent Eluted by Fraction, 3M NaCl: 0%
  Percent Eluted by Fraction, Flow: 40%
[5]; [6]
  Mass Protein per Eluate Fraction, 1M NaCl: 0.34 mg
  Mass Protein per Eluate Fraction, Flow: 0.22 mg
